From the DeepSol protein solubility set come the findings set out here.

A short description of the series: soluble on expression in E. coli; label from the status in PepcDB or PDB records.
Regarding “GPGSMSEEHANDSTLRVKVATINDKGEEVYASSLSHDGTYLAAVFGDGALVIFNPSTFSALDSSAAGKGYDNVPCTAVQWLESSEGGLYRLVSVSSAGGVFIWQWDGAALHRTNRVPEKGNEITCLAVSPECDMFITAGSDRTVRLYDADGTLKANLQMAHDESGVSRLAHTSRIFSVRFVSQGVAVSGGWGGPLQVWDLKANEARVEIRGAQVSSDGIELITGTNCVLVASRRQKEQLQVFDCVSGQELADDSARLSMALGELIPLSSRLCKTSGLVWTITSSPSKVLVTSYSTGQLIASYDSAYDLMNISIFEGLPNNAYISCAEGKLLFATVKQ”, the “soluble on expression in E. coli” value is given as “not soluble”.

Turning to “MGSDKIHHHHHHMVRHKRDIQRDTVPEWEDLRQLAHEIKRYNVTHLDELLLRFEENARRNGVIVHWAKDAKEHNEILYGILRDHGVKKFVKSKSMLTEECHLNEYLIEKGINVIETDLGERILQLMEEPPSHIVMPAIHIKREAVSDLFHDKLGTEKGNYDPTYLTRAARKSLREDFISADAAMTGGNFAVASTGEVVVCTNEGNADMGMACQKLNICSFGLEKLVPDLDAVGVFTRLLARSGTGQPSTTYTAHYRKPHEGGELHYIIVDNGRTDIIENEEHVKTLNCIRCGACMNTCPVYRRSGGYSYTYFIPGPIGINLGMLKDPRRYSDNVSACSLCLSCSNVCPVKIDLGEQIYRWRQDLDHLGRASQEKKLMSAGMKYLMDSPWRFNTALKMAPMANSLPRFLLYNGLNAWGKGRELPRFASTSFNNWWKKNIKK”, the “soluble on expression in E. coli” value is reported as “not soluble”. Consider “MSLVETPKCTCGNHGVMNKKEKIIFACSGASNVGELSNAAAVRLTKEGFGNKACTASLAIKTPSVMERVENAGEIVVIDGCPVSCAKRIADNSGVKVDQYIIITELGINKISDMDILDEDITKTVSAVKDGKSVCLDRKRENHKGSGCNCGCESKEGHHHHHH”, for which the “soluble on expression in E. coli” value is reported as “not soluble”. Turning to “MSLVHNPDNTKLSDATFVIFDIETTGLHGRYDDVIEFSARKIKNNSEIDHQQFFLKIDKPIPKTITEITKITDEMLEGGIDQQQGLEKIRNYLDDCVMVAHNGINFDLPFLQTQFEKYNIKPLTNPLIDTLCLSWALNPLFSSHTLSNICSKLKLEFDDERLHRAEYDTEALKKVFFYFKKQLKEMGINTLTEIDQNLNKKCQIDLMKRVFTNTAIVYVKNQRGFQNLYEMLSIALTDHNANRPLVLASSLAKFRKSFLLTENPVQGDIFKAALTKPINELEKAIEKVDFVLISQPNAYLGYTLREGLKKELINDAIKLVIKTATKLKKLVAVASDAYFIHPWENEYYKAIVCAKGLGGKWHRHFNNKEKEQTVPEVFLHTTDEMLKRMSFLGEDIAYKLVVENTNKIVKLLDLNELVPTKNKLYPPVMQDSNQKLIDKTWKQAEKRYGKNLPKLIKERIEKEEGHHHHHH”, the “soluble on expression in E. coli” value is “soluble”. With “SNAKVTVGKSAPYFSLPNEKGEKLSRSAERFRNRYLLLNFWASWCDPQPEANAELKRLNKEYKKNKNFAMLGISLDIDREAWETAIKKDTLSWDQVCDFTGLSSETAKQYAILTLPTNILLSPTGKILARDIQGEALTGKLKELLKTE”, the “soluble on expression in E. coli” value is given as “soluble”. Regarding “MERMSDSADKPIDNDAEGVWSPDIEQSFQEALAIYPPCGRRKIILSDEGKMYGRNELIARYIKLRTGKTRTRKQVSSHIQVLARRKSRDFHSKLKDQTAKDKALQHMAAMSSAQIVSATAIHNKLGLPGIPRPTFPGGPGFWPGMIQTGQPGSSQDVKPFVQQAYPIQPAVTAPIPGFEPTSAPAPSVPAWQGRSIGTTKLRLVEFSAFLEQQRDPDSYNKHLFVHIGHANHSYSDPLLESVDIRQIYDKFPEKKGGLKELFGKGPQNAFFLVKFWADLNCNIQDDAGAFYGVSSQYESSENMTVTCSTKVCSFGKQVVEKVETEYARFENGRFVYRINRSPMCEYMINFIHKLKHLPEKYMMNSVLENFTILLVVTNRDTQETLLCMACVFEVSNSEHGAQHHIYRLVKD”, the “soluble on expression in E. coli” value is listed as “soluble”. Consider “MRRSNEPTKRKSTTGHGDYAEHKKRKSMSKEATPVLEENLTPDVMINNLHEIVTQILENQELPETAIIELEGFDATAATMEEYMQKREETRKLVTDSEFFDQKTELNLSVASLAGAQVEVDKRVTTRGMSRKLHDECGINEKDILYQGLDYHGTESRVSKELRDSRQASIIESCVDFQKQIQWKIGIMEKVKAKSGRSYPMSDGPSVRTRGGQDKQREEMKKQQKELEKSKKQRKTRAAGEQDPFKTPQKKIEFNALDERRIIENYQLEVASEIRTHRPFLSRSIAPVPFNIDILDDEEEEMEIS”, for which the “soluble on expression in E. coli” value is given as “not soluble”. Consider “GSMAGSVGAAAPVTAANGDDSESETSESDDDSPPRPAAVAVHKREEDEEEDDEFEEVADDPIVMVAGRPFSYSEVSQRPELVAQMTPEEKEAYIAMGQRMFEDLFE”, for which the “soluble on expression in E. coli” value was “soluble”. Then “MLSVEKFRVGERVVWIGVIFSGRVQGIAFAFDRGTLMKRIHDLAEHLGKRGVSISLDVQPSDYPEKVFKVLIGELDNASFLRELSFEGVTPFEKKVYEWLTKNVKRGSVITYGDLAKALNTSPRAVGGAMKRNPYPIVVPCHRVVAHDGIGYYSSGIEEKKFLLEIEGVKEWTS”, with “soluble”. For the sequence “SLIFILGIFYYLTQPLKSNSVVFIPQGSISQIITYLKQNKYQMSNIDKYILFFLGHPQSGWINIGTKDLNRAEFLHKLTIAKAALQTITLIPGETSVIFLEQAAKQLGLDKDILLKEFQAQAPYDEGVFLPETYKIPKGITENLLIQMLLNHAEISNKKTSEKIFGDYNPKKWHQYIIIASVIQKEAANDNEMPIVASVIYNRLKKGMKLQMDGTLNYGIYSHVKVTPQRIRQDNSFYNTYKFTGLPKEAVCNVSLAAIRAAIFPLKTDYLYFVRDKNTGVHIFSTNIDDHNKAINLQKGK”, the “soluble on expression in E. coli” value is reported as “soluble”. Under “MSLSVAIRVKDLTKKYKLYQKRSERLANAFGKEKNIKEFYALKGVSFEISKGECVGIIGHNGAGKSTLLKLLTGVAFPTSGEIEINGRLASMLELGSGFNPELTGMENIYFNGSLNGLTKEEIDGKLKDILEFADIGNFIEQPVKNYSSGMFARLAFAVAINVDPDILIVDEILSVGDVGFQVKCMEKFNEFKKKGKTILYVSHGLGTVKKFCDRAIWLQKGEVVDDGNSVIVVERYYNLNFNPANIEQLKDHKSDIINSIAVKSNTKNVEYLEKLDLEVEYDLISNDLKDPNIVLEFRKTDYEPGTTRGNDQFVCGINSKDNIKNIPFNLGVNKLKVSLNKVNLVAGVYYIDFVLRDGEEEVYRKINGYSFTLNEGHHHHHH” stands “soluble”. As for “MGSDKIHHHHHHMKAVLVEQPGSSEQLKVVEREIPKIKEGWSLVKIKGFGINRSEIFTRKGYSPSVVFPRVLGIECVGIIEETSDKNHFFHGQKVVSIMGEMGRAFDGSYAEYVLLPNEQIYPIKTNLTWDKLAAAPESYYTAYGAYKNLKLKKQDLVLVRAGASGVALAFLNLLKASLPEIKVTASVRSLAKKQQLLDSGYDEVIIDRDSCLQTKQKFDKVLDLIGPACIDDTLNHVADGGIICLVGLLGGQWTLDNFDPIMALQNNIYLTTFYSGNINLNKLQELFDFIAKYAVPIKVEKIFTIDHIKEAHDYLESPQAFGKVIVLNGVA”, the “soluble on expression in E. coli” value is “not soluble”. Then “MTNDLADIKLYDQNPDEAAIERLHHRLALVMKNQDASLVATSDPKELERVEKWVQDVLGADEQSAKRGVSKVADMMSGDRRKSRMTFYYLVAKQLNALHKI”, with “not soluble”; and “MSMKGKETMSKQNEKLVVGKLGSSYGIRGWLKVFSYTDNPESIFDYSPWYIDQKGEWVEYKVEGWKRHNKGWVVKLQGLDVREDAHLLTNFEIAIDPASLPELSEDEFYWRELFGMQVVTTNGYDLGVVTDMMETGSNDVLVVKANLKDAFGQKERLIPFLEEQVIKVVDRQAQRIEVDWDPAF”, with “soluble”. On to “MSDAHVLKSRLEWGEPAFTILDVRDRSTYNDGHIMGAMAMPIEDLVDRASSSLEKSRDIYVYGAGDEQTSQAVNLLRSAGFEHVSELKGGLAAWKAIGGPTEGIIESRLEHHHHHH”, for which the “soluble on expression in E. coli” value was “not soluble”.

With “MGSDKIHHHHHHMNKSIRSSTLTRIRLIEAASQVFASLGVQGATTREIARVAGVNEVTLFRHFASKEQLLGAVIKNALALQTEALAYPEAWTQDLKIDLRQYAHLYNTMLEAQEDLIRTFIGEAKRHPEAAKQVIQEAAKPLREKLVAYLESSQKLGTVRVDLAPFPAVDMFTGMLLAGMLCRSAKFNQGSYSCEDYIETCVDIFVRGISTSNSSQCGCKF”, the “soluble on expression in E. coli” value was “not soluble”. Under “MIATLLSSLLLTGPISAGAETQGLLPAQDLLPDIGTSAGATLSIDQEMAMGDFYVRQMRASAPLIYDPLLTQYINTLGNRLVANANSVRTPFHFYLVNNDQINAFAFFGGNVVLHSALFRYTDNESELASVLAHEISHVTQRHLARAMEEQQRLAPLTWVGVLGSILLTMASPQAGMAGLSGTLAGAQQGIISFTQGNEQEADRIGIQVLQRSGFDPQAMPNFLQKLADQSRYVSKPPEMLLTHPLPDSRLSDARNRANQMKPHPTASSQDYLFAKMRILGMYGADENSLTPELLDKLSKGTVREQLAAKYGQAVQLYQAKKYDEARNLLQPLLAQQPGNIWFLDLMTDIDLGQNKSAAAIARLQNAMVKQNDEPVLQLNLANAYVQGRQPAAAIKLLHRYTFAYPNDPNGWDLLAQATATQGLRDQELAARAESLALSGKLTQAIGLLSDASARVKLGSLEQARYDARIDQLRRLNERFRKYQKS” stands “not soluble”; under “MAHHHHHHSLTQQYLTVTALTKYLKRKFDADPYLGRVYLTGEISNFRFRANAHQYFSLKDDHAKISAIMFKSAFQKLKFQPKEGMKVMVVGRISLYENSGSYQIYIEHMEPDGVGALYQALAELREKLGKEGLFEGPKQQLPRYPKRIAVVTSPSGAVIRDIITTVKRRYPIAQLVLFPTLVQGEQAADDIVRNIQRADAQSDFDTMIIGRGGGSIEDLWPFNEEKVARAIHAATTPIISSVGHETDVTIADMVADVRAATPTAAAELAVPVLNEELLRISERRSRLEQSFLYLLQQRTERFQRLQNSYVFKQPERLYEGQTIKLDRMTQRLFQAMTTIHHQKQRQAQGIIAQLQQQTPKGQLRESQQQLAFLQRNLQTQMTQLFLNKQKQFTSAVQQLDLLSPLKIMGRGYSYTTKEDRVVKTVTELQPADQLTIHYADGTVQANVETITAKKEEFEG”, “soluble”; under “MGSDKIHHHHHHMSDLPERLHDIIRRRNMVLGPGYQFSETIPVEFVSSFGAHLIDSDGNDYLDAFNNVQGVGHAHRHVADAVARQIAAINTDTRYPQEALVAYAERLLATFPAELSKLSLPCTGSEANDLAVRVARYHTGGEGIIVTRWAFHGRTREVASFSPMLGAGSPLGPNVRLIAAPDPRFCGPQQSLENYMRDQVRSAIVDLERHGYRLAALVADSAFTSDGIFTHPVGFLQAMVDEVHAAGGLHIADEVQSGFAQLGDSMWGFSRHGVVPDIVTMGKAIGNGFPISGVVFRPEVSDEFGQKVSYFNTLGGRSLSIAAASAVLDVFEQENVRERVAVNGAALQSGLETLARESPYVAEIRGSGLYLGVEIVKDRETLEPDPIRCESIIKDLRDRRVLISRTGSSGNVLKVRPPVAFTAADVSRFLETFAIVAKQRL”, “not soluble”. Under “LSYPNATESVYGLTRYSTNDEAIAGVNNESSITPAKFTVALNNVFETRVSTESSNGVIKISSLPQALAGADDTTAMTPLKTQQLAVKLIAQIAPSKNAATESEQGVIQLATVAQARQGTLREGYAISPYTFMNSTATEEYKGVIKLGTQSEVNSNNASVAVTGATLNGRGSTTSMRGVVKLTTTAGSQSGGDASSALAWNADVIHQRGGQTINGTLRINNTLTIASGGANITGTVNMTGGYIQGKRVVTQNEIDRTIPVGAIMMWAADSLPSDAWRFCHGGTVSASDCPLYASRIGTRYGGSSSNPGLPDMR” stands “soluble”.
